Measured values reported in patent publication US6294341, “Method for detecting a substance having an activity to inhibit HIV infection using immunoassay and variant protein used for said method” (Korea Institute of Science and Technology, dated 2001).

Biological target: Trx-N variant protein (homo sapiens and HIV hybrid)
Assay: immunoassay on plate-adsorbed Trx-N, detection with anti-GST antibody

B1: glutathione S-transferase (GST), unmodified (other)
chain: MACGHVKLIYFNGRGRAEPIRMILVAAGVEFEDERIEFQDWPKIKPTIPGGRLPIVKITDKRGDVKTMSESLAIARFIARKHNMMGDTDDEYYIIEKMIGQVEDVESEYHKTLMKPPEEKEKISKEILNGKVPILLQAICETLKESTGNLTVGDKVTLADVVLIASIDHITDLDKEFLTGKYPEIHKHRKHLLATSPKLAKYLSERHATAFLVPRGSPGIHRD
Q: Does B1 bind?
A: no binding
